According to publication PMC3548793:

How the values were obtained:
GFP-Sec13 = GFP-Sec13 (UniProt P55735); experiment: co-immunoprecipitation and western blotting; details: parent: 0.8
GFP-tagged Sec23 [1] = target: GFP-tagged Sec23 (UniProt Q15436); experiment: co-immunoprecipitation (anti-GFP beads) and western blotting, single blot quantified; details: HEK293 cells co-transfected; parent: 1
GFP-tagged Sec23 [2] = target: GFP-tagged Sec23 (UniProt Q15436); experiment: co-immunoprecipitation (anti-GFP beads) and western blotting, mean of three experiments; details: HEK293 cells co-transfected; parent: est. 1.0; read off a plot
Sec23 = Sec23 (UniProt Q15436); experiment: anti-GFP co-IP, anti-FLAG blot; details: reference: wild type; sites S527,S799

Chain of GFP-tagged Sec23 (Q15436 whole entry): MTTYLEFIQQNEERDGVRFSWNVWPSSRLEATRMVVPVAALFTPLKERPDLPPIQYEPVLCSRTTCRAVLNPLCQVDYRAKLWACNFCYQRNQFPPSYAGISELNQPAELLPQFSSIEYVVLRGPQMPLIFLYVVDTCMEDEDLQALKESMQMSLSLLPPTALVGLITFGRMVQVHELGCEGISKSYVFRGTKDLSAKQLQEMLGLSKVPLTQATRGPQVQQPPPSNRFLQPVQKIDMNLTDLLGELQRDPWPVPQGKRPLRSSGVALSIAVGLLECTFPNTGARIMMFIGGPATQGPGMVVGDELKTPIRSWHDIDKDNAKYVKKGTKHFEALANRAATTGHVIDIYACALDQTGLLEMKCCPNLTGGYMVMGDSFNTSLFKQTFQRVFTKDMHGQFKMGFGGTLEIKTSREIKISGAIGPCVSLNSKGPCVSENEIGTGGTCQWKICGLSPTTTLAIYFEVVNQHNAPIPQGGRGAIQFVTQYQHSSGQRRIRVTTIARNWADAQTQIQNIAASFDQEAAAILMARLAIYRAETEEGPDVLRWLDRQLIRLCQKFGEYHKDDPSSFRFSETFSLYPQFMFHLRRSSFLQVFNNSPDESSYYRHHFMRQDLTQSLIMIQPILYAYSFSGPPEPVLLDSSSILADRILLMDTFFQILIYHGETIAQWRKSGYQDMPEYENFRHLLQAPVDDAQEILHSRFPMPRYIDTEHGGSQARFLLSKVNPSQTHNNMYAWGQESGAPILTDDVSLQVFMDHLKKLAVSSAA
Chain of FLAG-tagged wild type (WT) Sec31 (from UniProt O94979) S527A; S799A; T1163A; T1165A (O94979 whole entry, stated change not applied): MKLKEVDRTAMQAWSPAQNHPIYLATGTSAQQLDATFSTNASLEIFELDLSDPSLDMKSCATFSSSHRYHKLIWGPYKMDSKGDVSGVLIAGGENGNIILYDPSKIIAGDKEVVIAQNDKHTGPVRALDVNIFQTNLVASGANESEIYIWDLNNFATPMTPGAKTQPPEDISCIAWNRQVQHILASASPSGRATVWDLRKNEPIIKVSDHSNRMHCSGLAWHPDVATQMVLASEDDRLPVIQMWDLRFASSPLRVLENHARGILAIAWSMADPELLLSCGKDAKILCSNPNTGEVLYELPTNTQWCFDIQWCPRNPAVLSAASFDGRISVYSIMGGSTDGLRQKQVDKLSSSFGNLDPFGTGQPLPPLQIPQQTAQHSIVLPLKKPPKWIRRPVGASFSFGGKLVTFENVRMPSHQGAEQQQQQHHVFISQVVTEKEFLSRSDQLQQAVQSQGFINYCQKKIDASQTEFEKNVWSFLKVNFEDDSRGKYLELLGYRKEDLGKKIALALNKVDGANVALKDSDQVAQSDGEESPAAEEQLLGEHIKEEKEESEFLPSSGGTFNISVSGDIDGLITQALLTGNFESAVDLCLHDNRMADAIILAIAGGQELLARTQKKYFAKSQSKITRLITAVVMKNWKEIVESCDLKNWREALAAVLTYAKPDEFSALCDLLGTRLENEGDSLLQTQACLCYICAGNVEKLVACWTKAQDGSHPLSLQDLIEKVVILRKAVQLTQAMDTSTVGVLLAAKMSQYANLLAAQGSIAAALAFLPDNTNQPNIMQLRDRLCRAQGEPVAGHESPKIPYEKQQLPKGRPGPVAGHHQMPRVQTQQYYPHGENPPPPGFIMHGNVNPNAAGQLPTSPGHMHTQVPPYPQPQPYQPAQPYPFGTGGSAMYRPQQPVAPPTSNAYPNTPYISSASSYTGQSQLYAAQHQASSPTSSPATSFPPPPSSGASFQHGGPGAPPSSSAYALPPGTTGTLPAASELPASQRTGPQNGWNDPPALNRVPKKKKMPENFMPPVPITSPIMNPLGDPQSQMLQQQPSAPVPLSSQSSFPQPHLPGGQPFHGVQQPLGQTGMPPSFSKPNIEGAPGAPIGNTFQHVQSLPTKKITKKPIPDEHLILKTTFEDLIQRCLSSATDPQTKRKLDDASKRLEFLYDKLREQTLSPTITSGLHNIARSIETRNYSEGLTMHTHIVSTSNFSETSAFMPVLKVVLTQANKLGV
Chain of GFP-Sec13 (P55735 whole entry): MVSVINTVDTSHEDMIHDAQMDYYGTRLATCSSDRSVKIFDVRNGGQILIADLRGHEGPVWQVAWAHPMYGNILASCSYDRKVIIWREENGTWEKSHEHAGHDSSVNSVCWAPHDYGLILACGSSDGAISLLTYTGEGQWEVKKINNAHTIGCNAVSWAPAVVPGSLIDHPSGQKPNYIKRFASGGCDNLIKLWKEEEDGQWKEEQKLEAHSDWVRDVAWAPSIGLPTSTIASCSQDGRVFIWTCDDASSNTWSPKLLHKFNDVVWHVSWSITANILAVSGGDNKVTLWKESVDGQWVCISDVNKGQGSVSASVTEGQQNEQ
Chain of FLAG-tagged wild type (WT) Sec31 (from UniProt O94979) W985A (O94979 whole entry, stated change not applied): as the sequence (O94979 whole entry, stated change not applied) above
Chain of FLAG-tagged wild type (WT) Sec31 (from UniProt O94979) T1163A (O94979 whole entry, stated change not applied): as above

Substance	other: normalized ratio of co-IP'ed Sec31 (GFP-Sec13)	ratio to parent (GFP-tagged Sec23 [1])	ratio to parent (GFP-tagged Sec23 [2])	fold change (Sec23)
FLAG-tagged wild type (WT) Sec31 (from UniProt O94979) S527A; S799A; T1163A; T1165A	1.4	3.2	3.1	–
Sec31 (from UniProt O94979) S527A/S799A	–	–	–	stronger
FLAG-tagged wild type (WT) Sec31 (from UniProt O94979) W985A	–	0.3	0.33	–
FLAG-tagged wild type (WT) Sec31 (from UniProt O94979) T1163A	1.1	–	–	–
